# Measurements as given in patent US20180327746, “Alpha-AMYLASE-BINDING NUCLEIC ACID MOLECULE AND USE THEREOF” (NEC Solution Innovators, Ltd., published 2018).
# Tests used:
# alpha-amylase [1] = molecular target: T1, alpha-amylase (Homo sapiens, UniProt P0DUB6 P0DUB6:16-511); assay: SPR; 400 nM amylase, 1 mM MgCl2, pH 7.4; settings: tags: none stated; commercial human alpha-amylase, Lee Biosolutions; label: 3' poly(dA)20 captured on biotin-poly(dT)20
# T1 sequence: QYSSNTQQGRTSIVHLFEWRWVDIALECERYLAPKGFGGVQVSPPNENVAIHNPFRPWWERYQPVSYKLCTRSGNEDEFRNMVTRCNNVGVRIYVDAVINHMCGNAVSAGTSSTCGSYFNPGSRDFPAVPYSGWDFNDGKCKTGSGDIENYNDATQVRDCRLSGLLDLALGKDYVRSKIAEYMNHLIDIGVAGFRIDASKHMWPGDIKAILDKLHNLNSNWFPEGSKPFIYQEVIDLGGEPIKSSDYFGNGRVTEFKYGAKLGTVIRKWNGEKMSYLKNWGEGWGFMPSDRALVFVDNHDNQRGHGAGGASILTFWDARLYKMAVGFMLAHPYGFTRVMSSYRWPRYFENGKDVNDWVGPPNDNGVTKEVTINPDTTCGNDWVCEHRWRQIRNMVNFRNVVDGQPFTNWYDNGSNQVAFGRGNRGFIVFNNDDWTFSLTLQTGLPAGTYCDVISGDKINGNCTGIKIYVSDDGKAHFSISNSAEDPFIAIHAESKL
# Description: The analysis of the binding ability was carried out using a ProteON XPR36 (BioRad) in accordance with its instructions for use.
# First, as a sensor chip designed specifically for the ProteON, a streptavidin-immobilized chip (trade name: ProteOn NLC Sensor Chip, BioRad) was set in the ProteON XPR36. Biotinylated poly(dT) at 5 μmol/L was injected to a flow cell of the sensor chip using ultrapure water (DDW), and the binding was allowed to proceed until the signal intensity (RU: Resonance Unit) reached about 900 RU. The biotinylated poly(dT) was prepared by biotinylating the 5′ end of 20-mer deoxythymidine. Then, the poly(dA)-added aptamer at 200 nmol/L was injected to the flow cell of the chip using an SPR buffer at a flow rate of 25 μL/min for 80 seconds, and the binding was allowed to proceed until the signal intensity reached about 800 RU. […] Subsequently, the specimen was injected using the SPR buffer at a flow rate of 50 μL/min for 120 seconds, followed by washing performed by flowing the SPR buffer under the same conditions for 300 seconds. The concentration of the human α-amylase in the specimen was set to 400 nmol/L. Signal intensity measurement was performed concurrently with the injection of the specimen and the washing with the SPR buffer. With 0 seconds being the start of the injection, the mean value of signal intensities from 115 seconds to 125 seconds was determined. […] Then, the value (B/A) obtained by dividing the protein binding measured value (B) by the aptamer immobilization measured value (A) was determined as a relative value (Relative Unit).
# alpha-amylase [2] = molecular target: T1, alpha-amylase; assay: SPR; 40 mM HEPES pH 7.4, 125 mM NaCl, 5 mM KCl, 1 mM MgCl2, 0.01% Tween 20; Chi2 2.68; settings: tags: none stated; commercial human alpha-amylase, Lee Biosolutions; label: 3' poly(dA)20 captured on biotin-poly(dT)20
# Description: (§1) Biotinylated poly(dT) at 5 μmol/L was injected to a flow cell of the sensor chip using ultrapure water (DDW), and the binding was allowed to proceed until the signal intensity (RU: Resonance Unit) reached about 900 RU. The biotinylated poly(dT) was prepared by biotinylating the 5′ end of 20-mer deoxythymidine. Then, the poly(dA)-added aptamer at 200 nmol/L was injected to the flow cell of the chip using an SPR buffer at a flow rate of 25 μL/min for 80 seconds, and the binding was allowed to proceed until the signal intensity reached about 800 RU. […] With 0 seconds being the start of the injection, the mean value of signal intensities from 115 seconds to 125 seconds was determined. […] Then, the value (B/A) obtained by dividing the protein binding measured value (B) by the aptamer immobilization measured value (A) was determined as a relative value (Relative Unit).
# (§2) The binding ability of the aptamers was analyzed by SPR in the same manner as in Example 1, except that the concentration of the α-amylase in the specimen was set to a plurality of values. The concentration was set to 20 nmol/L, 10 nmol/L, 5 nmol/L, 2.5 nmol/L, and 1.25 nmol/L. Then, from the results obtained by the SPR analysis, the kinetic parameter and the chi-squared value were calculated.
# alpha-amylase [3] = molecular target: T1, alpha-amylase; assay: SPR; SPR buffer with 1 mM MgCl2, pH 7.4; Chi2 24.85; settings: tags: none stated; commercial human alpha-amylase, Lee Biosolutions; label: 3' poly(dA)20 captured on biotin-poly(dT)20
# Description: as §1, §2
# alpha-amylase [4] = molecular target: T1, alpha-amylase; assay: SPR; SPR buffer with 1 mM MgCl2, pH 7.4; Chi2 29.33; settings: tags: none stated; commercial human alpha-amylase, Lee Biosolutions; label: 3' poly(dA)20 captured on biotin-poly(dT)20
# Description: as §1, §2
# chromogranin A (CgA) = molecular target: T2, chromogranin A (CgA) (Homo sapiens, UniProt P10645 P10645:19-457); assay: capillary electrophoresis specificity control; settings: tags: N-terminal His-tag; full length, Creative BioMart CHGA-26904TH; label: 5' TYE665
# T2 sequence: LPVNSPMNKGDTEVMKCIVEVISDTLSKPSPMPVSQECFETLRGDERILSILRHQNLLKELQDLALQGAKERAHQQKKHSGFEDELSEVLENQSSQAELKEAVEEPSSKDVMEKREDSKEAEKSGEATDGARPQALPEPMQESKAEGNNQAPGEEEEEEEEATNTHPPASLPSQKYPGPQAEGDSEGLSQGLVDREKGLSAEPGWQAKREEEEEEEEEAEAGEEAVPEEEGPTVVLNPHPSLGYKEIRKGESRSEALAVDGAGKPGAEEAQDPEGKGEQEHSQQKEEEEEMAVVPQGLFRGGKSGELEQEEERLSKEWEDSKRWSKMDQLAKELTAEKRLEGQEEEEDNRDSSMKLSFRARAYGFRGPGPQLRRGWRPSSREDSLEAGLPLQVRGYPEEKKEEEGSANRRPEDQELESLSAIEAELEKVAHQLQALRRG
# Description: (§3) Reaction solutions containing the labeled aptamer (SEQ ID NO: 1) were prepared. Each of the reaction solutions was subjected to CAE under the following conditions. The reaction solution was caused to migrate while separating the components therefrom, and the fluorescence at a maximum absorption wavelength (665 nm) of the fluorescent substance was measured. As the reaction solutions, the following four types of reaction solutions were used: a reaction solution 1 containing the labeled aptamer only; a reaction solution 2 containing the labeled aptamer and the α-amylase; a reaction solution 3 containing the labeled aptamer and the saliva; and a reaction solution 4 containing the labeled aptamer as the negative control and the saliva. In each of the reaction solutions, the concentration of the labeled aptamer was 200 nmol/L. In the reaction solution 2, the concentration of the α-amylase was 2 μmol/L. In the reaction solutions 3 and 4, the concentration of the saliva was 10%. The reminder of each of the reaction solutions was a buffer solution. The composition of the buffer solution was as follows: 40 mmol/L HEPES (pH 7.5), 125 mmol/L NaCl, 5 mmol/L KCl, and 1 mmol/L MgCl₂.
# (§4) Preparation of the reaction solution 2 and the binding ability analysis by CAE were carried out in the same manner as in the above item (3), except that the labeled aptamers (SEQ ID NOs: 1, 2, 3, and 19) were used. Further, in order to examine the specificity of the labeled aptamers to the α-amylase, the binding ability analysis by CAE was performed in the same manner as in the case where the above-described reaction solution 2 was used, except that, instead of the α-amylase, human chromogranin A (CgA, recombinant full length protein, Creative BioMart, #CHGA-26904TH) or human IgA (secretory, Biomedicals, LLC-Cappel Products, #55905), each having a His-tag fused at the N terminus were used.
# alpha-amylase [5] = molecular target: T1, alpha-amylase; assay: capillary electrophoresis; 200 nM aptamer, 2 uM amylase, 1 mM MgCl2; settings: tags: none stated; commercial human alpha-amylase, Lee Biosolutions; label: 5' TYE665
# Description: as §3, §4
# alpha-amylase [6] = molecular target: T1, alpha-amylase; assay: SPR; SPR buffer with 1 mM MgCl2, pH 7.4; Chi2 30.79; settings: tags: none stated; commercial human alpha-amylase, Lee Biosolutions; label: 3' poly(dA)20 captured on biotin-poly(dT)20
# Description: as §1, §2
# alpha-amylase [7] = molecular target: T1, alpha-amylase; assay: SPR; SPR buffer with 1 mM MgCl2, pH 7.4; Chi2 17.73; settings: tags: none stated; commercial human alpha-amylase, Lee Biosolutions; label: 3' poly(dA)20 captured on biotin-poly(dT)20
# Description: as §1, §2
binder,measurement,setting,value
"AML1243KR8m4 (ssDNA, KS9 modified T (formula 1) at underlined T, i.e. T 3' of the 5' primer region) DNA: GGATACCTTAACGCCGCCTATTGATTCTCTGTGACTAGTGTTTGTAGGTCGCAGAGTTGCACCCGTCTCGAAATCAAAAAAAAAAAAAAAAAAAA",binding result,alpha-amylase [1],binds
"AML1243KR8m5 (ssDNA, KS9 modified T (formula 1) at underlined T, i.e. T 3' of the 5' primer region) DNA: GGATACCTTAACGCCGCCTATTGAGTTCAACAATGACTAGTGTTTGTCGGTCTGAGTTGCACCCGTCTCGAAATCAAAAAAAAAAAAAAAAAAAA",binding result,alpha-amylase [1],binds
"AML1243KR8m1s58_FW_s15 (ssDNA, KS9 modified T (formula 1) at underlined T, i.e. T 3' of the 5' primer region) DNA: TAACGCCGCCTATTGTGAACGACGTGAATAGTGTTTGTGGGTCCGGAGTTAAAAAAAAAAAAAAAAAAAA",Kd,alpha-amylase [2],0.358 nM
"AML1243KR8m2s49Fw_s20 (ssDNA, KS9 modified T (formula 1) at underlined T, i.e. T 3' of the 5' primer region) DNA: TACCTTAACGCCGCCTATTGCTATGAGTAGTGTTTGTAGGTCTGGCAAAAAAAAAAAAAAAAAAAA",Kd,alpha-amylase [3],4.23 nM
"AML1243KR8m3s63Fw_s20 (ssDNA, KS9 modified T (formula 1) at underlined T, i.e. T 3' of the 5' primer region) DNA: TACCTTAACGCCGCCTATTGCGAGGTGTGGCTAGTCGTTATAGGTCCACCGAGTTGCACCAAAAAAAAAAAAAAAAAAAA",Kd,alpha-amylase [4],16.6 nM
"TYE665-Amy_258KK10R8m2 (ssDNA, KK10 modified T (formula 2) at double-underlined T, i.e. T 3' of the 5' primer region) DNA: GGTTACGCCCAGGACACATTTCATTGATGGCATACTAAGGGTCGAGGAATTCGTAAGCTCGGTCTCCTCGGATAATC",binding result,chromogranin A (CgA),no binding
same,binding result,alpha-amylase [5],binds
"AML1243KR8m3s63Fw_s15 (ssDNA, KS9 modified T (formula 1) at underlined T, i.e. T 3' of the 5' primer region) DNA: TAACGCCGCCTATTGCGAGGTGTGGCTAGTCGTTATAGGTCCACCGAGTTGCACCAAAAAAAAAAAAAAAAAAAA",Kd,alpha-amylase [6],18.7 nM
"AML1243KR8m2s63 (ssDNA, KS9 modified T (formula 1) at underlined T, i.e. T 3' of the 5' primer region) DNA: GGATACCTTAACGCCGCCTATTGCTATGAGTAGTGTTTGTAGGTCTGGCATGCGAGTTGCACCAAAAAAAAAAAAAAAAAAAA",Kd,alpha-amylase [7],3.93 nM
